Experimental data published in paper PMC5084153, “Structural studies on MRG701 chromodomain reveal a novel dimerization interface of MRG proteins in green plants” (Protein & Cell, 2016).
Positions count from the first letter of the chain named. Several values for one entry are separate records, joined by “and”; a condition that tells them apart may be missing. Equal values may be shown once. Primed or numbered codes have the meaning given here. No end group written: not given here. Me3″ = trimethyl (trimethyl-lysine)

T1: MRG1 chromodomain (MRG1^CD, residues 28-110) (Arabidopsis thaliana, UniProt Q94C32 28-110)
T1 chain: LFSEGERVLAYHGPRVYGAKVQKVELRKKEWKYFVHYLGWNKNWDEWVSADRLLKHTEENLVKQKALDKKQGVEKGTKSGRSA

T2: MRG1 chromodomain mutant W58A (MRG1^CDW58A) (Arabidopsis thaliana, UniProt Q94C32 28-110, W58A)
T2 construct: MRG1 of Arabidopsis thaliana, chromodomain, residues 28-110, point mutant W58A; source: E. coli BL21 (DE3), purified (Ni HiTrap, tag removed by ULP enzyme, Superdex G75)
T2 sequence (looked up): T1 chain with W31A

T3: MRG1 chromodomain mutant W58A (MRG1^CDW58A) (Arabidopsis thaliana, UniProt Q94C32 28-110, W58A)
T3 sequence: T1 chain with W31A

T4: MRG2 chromodomain (MRG2^CD) (Arabidopsis, UniProt Q4V3E2 51-123)
T4 chain: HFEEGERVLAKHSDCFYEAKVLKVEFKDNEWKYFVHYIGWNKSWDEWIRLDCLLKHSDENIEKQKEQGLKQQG

T5: MRG2 chromodomain mutant E75A (MRG2^CDE75A) (Arabidopsis, UniProt Q4V3E2 51-123, E75A)
T5 sequence: T4 chain with E25A

B1: MRG1 chromodomain (MRG1^CD, residues 28-110) (domain or fragment, Arabidopsis thaliana, UniProt Q94C32 28-110, looked up)
chain: T1 chain
notes: MRG1 of Arabidopsis thaliana, chromodomain, residues 28-110; Homodimer by SEC-MALS; also called wild-type MRG1^CD; source: E. coli BL21 (DE3), purified (Ni HiTrap, tag removed by ULP enzyme, Superdex G75)
B2: MRG1^CDW58A: point mutant of MRG1 chromodomain disrupting π-π stacking (protein)
chain: T1 chain with W31A
modifications: left off: SMT3 (from the modified vector pET28-SMT3), end not stated, cleaved
notes: point mutant of MRG1 chromodomain disrupting π-π stacking
B3: MRG1^CD: MRG1 chromodomain (residues 28–110), Arabidopsis thaliana (protein)
chain: T1 chain
modifications: left off: SMT3 (from the modified vector pET28-SMT3), end not stated, cleaved
notes: MRG1 chromodomain (residues 28–110), Arabidopsis thaliana
B4: MRG2 chromodomain (MRG2^CD) (domain or fragment, Arabidopsis)
chain: T4 chain
notes: MRG2 of Arabidopsis, chromodomain; Homodimer by SEC-MALS; also called wild-type MRG2^CD; source: purified
B5: MRG2^CDE75A: point mutant of MRG2 chromodomain disrupting hydrogen bonding and electrostatic interactions (protein)
chain: T4 chain with E25A
B6: histone H3K4me3 peptide (residues 1-9) (peptide, UniProt P68431 2-10, looked up)
peptide: ARTK(Me3″)QTARK
notes: histone H3, residues 1-9, trimethylated at lysine 4

Legend:
MRG2^CDE75A = molecular target: T6, MRG2^CDE75A (Arabidopsis thaliana, UniProt Q4V3E2, E75A); type: binding
T6 construct: the Arabidopsis MRG2 chromodomain (MRG2^CD)
Method: (§1) ITC experiments were carried out at 20°C on a MicroCal iTC200. Protein and peptide were kept in an identical buffer of 20 mmol/L Tris pH 8.0, 100 mmol/L NaCl. The sample cell was filled with a 0.1–0.2-mmol/L solution of protein, and the injection syringe with 1–2 mmol/L of the titrating ligand. Each titration consisted of 20 2-μL injections with 2 min interval. Binding isotherms were analyzed by fitting data into the one-site model using the ITC data analysis module Origin 7.0 software.

MRG1^CDW58A = molecular target: T7, MRG1^CDW58A (Arabidopsis thaliana, UniProt Q94C32, W58A); type: binding
T7 construct: Arabidopsis thaliana MRG1 (residues 28–110); His-SMT3 (SUMO) from modified pET28-SMT3 (N, cleaved yes); made in house; host or cells: Escherichia coli BL21 (DE3)
Method: The cDNA encoding the chromodomain of Arabidopsis thaliana MRG1 (residues 28–110) and Oryza sativa MRG701 (residues 27–96) were amplified by PCR and cloned into the modified pET28-SMT3 vector. Point mutants were generated by Site-Directed Mutagenesis kit (NEB) according to the manufacturer’s instructions. The plasmid was transformed into Escherichia coli strain BL21 (DE3). The cells were cultured in LB medium with 50 μg/mL kanamycin and induced by final concentration of 0.2 mmol/L isopropyl-β-d-thiogalactopyranoside (IPTG) at 18°C for 18 h. Cells were harvested and re-suspended in 20 mmol/L Tris pH 8.0, 500 mmol/L NaCl, 25 mmol/L imidazole and then broken by cell disruptor (JNBIO). The fusion protein was purified first with Ni HiTrap column (GE healthcare) and then removed the tag by ULP enzyme. The target protein was further purified with Superdex G75 Hiload 26/60 column (GE healthcare) and then concentrated to 20 mg/mL for structural and biochemical studies.
as §1, with “Each titration consisted of 20 2-μL injections with 2 min interval.” left out

[1] = molecular target: MRG701 chromodomain mutant W56A (MRG701^CDW56A) (Oryza sativa); assay: ITC; MicroCal iTC200, 20°C, 20 mmol/L Tris pH 8.0, 100 mmol/L NaCl; protein 0.1-0.2 mmol/L in the cell, peptide 1-2 mmol/L in the syringe; one-site model
[2] = molecular target: MRG701 chromodomain (MRG701^CD, residues 27-96) (Oryza sativa); assay: as above
[3] = molecular target: MRG701 chromodomain (MRG701^CD, residues 27-96) (Oryza sativa); assay: SEC-MALS; Wyatt 015S5 (150 Å) column, 0.5 mL/min, 10 mmol/L Tris 8.0, 100 mmol/L NaCl; self-association of the chromodomain
[4] = molecular target: the molecule itself; assay: as above
[5] = SEC-MALS analysis of oligomerization status in solution; type: physicochemical; conditions: for Observed molar mass by SEC-MALS: Wyatt 015S5 (150 Å) column, 0.5 mL/min, 10 mmol/L Tris 8.0, 100 mmol/L NaCl, multi-angle light scattering and differential refractive index; for oligomerization in crystal and in solution (in words): SEC-MALS and crystal structure
Method: The absolute molar mass of target protein was determined by size exclusion chromatography coupled with multi-angel light scattering. The experiments were performed by an Agilent system connected with a Wyatt DAWN HELEOS-II multi-angle light scattering instrument and a Wyatt OptilabrEX differential refractometer. A Wyatt 015S5 (150 Å) column was used with a 100 μL sample loop at a flow rate of 0.5 mL/min in the running buffer of 10 mmol/L Tris 8.0, 100 mmol/L NaCl. The molar mass was calculated by light scattering intensity and differential refractive index using Wyatt ASTRA 6 software (Wyatt, [1993]).

[6] = molecular target: T1, MRG1 chromodomain (MRG1^CD, residues …); assay: ITC
[7] = molecular target: T2, MRG1 chromodomain mutant W58A …; assay: ITC; MicroCal iTC200, 20°C, 20 mmol/L Tris pH 8.0, 100 mmol/L NaCl; protein 0.1-0.2 mmol/L in the cell, peptide 1-2 mmol/L in the syringe; one-site model; conditions: both partners purified
[8] = molecular target: B1; assay: as above; conditions: both partners purified
[9] = molecular target: T3, MRG1 chromodomain mutant W58A …; assay: ITC
[10] = molecular target: T4, MRG2 chromodomain (MRG2^CD); assay: ITC
[11] = molecular target: T5, MRG2 chromodomain mutant E75A …; assay: ITC

T6 sequence (Q4V3E2 52-101 E75A): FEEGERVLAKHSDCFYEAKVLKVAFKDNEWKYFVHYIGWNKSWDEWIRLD
T7 sequence (Q94C32 28-110 W58A): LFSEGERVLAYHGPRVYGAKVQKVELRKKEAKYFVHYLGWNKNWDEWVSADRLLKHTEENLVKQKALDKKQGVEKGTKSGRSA

C[C@H](N)C(=O)N[C@@H](CCCNC(=N)N)C(=O)N[C@H](C(=O)N[C@@H](CCCC[N+](C)(C)C)C(=O)N[C@@H](CCC(N)=O)C(=O)N[C@H](C(=O)N[C@@H](C)C(=O)N[C@@H](CCCNC(=N)N)C(=O)N[C@@H](CCCCN)C(=O)O)[C@@H](C)O)[C@@H](C)O [H3K4me3]
difference of Kd between wild-type and mutant proteins (in words) (MRG2^CDE75A): only mild differences
difference of Kd between wild-type and mutant proteins (in words) (MRG1^CDW58A): only mild differences

histone H3K36me3 peptide (residues 31-41) (from UniProt P68431 32-42)
Kd [1]: 260 µM
Kd [2]: 510 µM

MRG701 chromodomain (MRG701^CD, residues 27-96) (domain or fragment)
stoichiometry N [3]: 2

B1
stoichiometry N [4]: 2

B2
Observed molar mass by SEC-MALS [5]: 13.4 kDa and 13.36 ± 1.40 kDa

B3
oligomerization in crystal and in solution (in words) [5]: form dimers both in crystal and in solution
Observed molar mass by SEC-MALS [5]: 20.7 kDa and 20.67 ± 2.99 kDa

B4
oligomerization in crystal and in solution (in words) [5]: form dimers both in crystal and in solution
Observed molar mass by SEC-MALS [5]: 20.7 kDa and 20.74 ± 3.05 kDa
stoichiometry N [4]: 2

B5
Observed molar mass by SEC-MALS [5]: 12.5 kDa and 12.47 ± 0.92 kDa

B6
Kd [6]: 650 µM
binding result [7]: binds
binding result [8]: binds
Kd [9]: 910 µM
Kd [10]: 520 µM
Kd [11]: 450 µM
Kd [1]: 250 µM
Kd [2]: 330 µM
